Results taken from patent EP4722248A1 (Shionogi & Co., Ltd, dated 2026).

Legend:
human CCR8 [1] = target: T1, human CCR8 (human, UniProt P51685 1-355); assay: cell-based or functional assay
human CCR8 [2] = target: T1, human CCR8; assay: cell-based or functional assay; remark: listed apart in the source

T1 sequence (P51685 whole entry): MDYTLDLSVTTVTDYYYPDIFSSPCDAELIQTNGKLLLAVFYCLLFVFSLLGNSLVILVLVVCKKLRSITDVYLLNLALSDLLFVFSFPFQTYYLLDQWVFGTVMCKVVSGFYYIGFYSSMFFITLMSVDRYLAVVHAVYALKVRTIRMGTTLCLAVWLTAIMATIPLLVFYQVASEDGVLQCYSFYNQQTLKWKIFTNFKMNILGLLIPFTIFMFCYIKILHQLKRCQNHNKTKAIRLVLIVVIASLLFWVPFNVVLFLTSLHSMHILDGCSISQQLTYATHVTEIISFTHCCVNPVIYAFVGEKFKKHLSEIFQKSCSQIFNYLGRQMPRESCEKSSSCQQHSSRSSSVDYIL

Row | Binder | EC50 of killing rate; hCCR8/FLuc/Rat-1 target cells, activated PBMC effectors, E/T 3:1 (human CCR8 [1]) [pM] | EC50 of cytotoxic activity, luciferase; hCCR8/Fluc/Rat-1 target cells, mouse spleen-derived CD8-positive T cell effectors, antibody 10 pM-10 nM (human CCR8 [2]) [pM]
1 | B6-CD3-3 (bispecific antibody) EVQLVESDGGLVQPGRSLKLSCAASGFTFSDYYMAWVRQAPTKGLEWVATITYDVYSTYYRDSVKGRFTISRDNAKSTLYLQMDSLRSEDTATYYCARHGGDGYNSGNWFAYWGQGTLVTVSSGGGGSGGGGSGGGGSDIVLTQSPALAVSLGQRATISCRASQSVSISRYNIMHWYQQKPGQQPKLLIYRASNLASGIPARFSGSGSGTDFTLTINPVQADDIATYYCQQSRESPPTFGGGTKLELKRAANASEVQLVESGGGLVQPGGSLRLSCAASGFTFSTYAMNWVRQAPGKGLEWVGRIRSKYNNYATYYADSVKGRFTISRDDSKNTLYLQMNSLRAEDTAVYYCVRHGNFGDSYVSWFAYWGQGTLVTVSSGKPGSGKPGSGKPGSGKPGSQAVVTQEPSLTVSPGGTVTLTCGSSTGAVTTSNYANWVQQKPGKSPRGLIGGTNKRAPGVPARFSGSLLGGKAALTISGAQPEDEADYYCALWYSNHWVFGGGTKLTVLHHHHHH | 1.62 | –
2 | B6-mCD3 (bispecific antibody) EVQLVESDGGLVQPGRSLKLSCAASGFTFSDYYMAWVRQAPTKGLEWVATITYDVYSTYYRDSVKGRFTISRDNAKSTLYLQMDSLRSEDTATYYCARHGGDGYNSGNWFAYWGQGTLVTVSSGGGGSGGGGSGGGGSDIVLTQSPALAVSLGQRATISCRASQSVSISRYNIMHWYQQKPGQQPKLLIYRASNLASGIPARFSGSGSGTDFTLTINPVQADDIATYYCQQSRESPPTFGGGTKLELKRAANASEVQLVESGGGLVQPGKSLKLSCEASGFTFSGYGMHWVRQAPGRGLESVAYITSSSINIKYADAVKGRFTVSRDNAKNLLFLQMNILKSEDTAMYYCARFDWDKNYWGQGTMVTVSSGGGGSGGGGSGGGGSDIQMTQSPSSLPASLGDRVTINCQASQDISNYLNWYQQKPGKAPKLLIYYTNKLADGVPSRFSGSGSGRDSSFTISSLESEDIGSYYCQQYYNYPWTFGPGTKLEIKHHHHHH | – | 62.3
